According to patent publication US8840891 (RSR, dated 2014):

What was measured:
Assay in all cases: cell-based or functional assay
[1] = biological target: wild type human TSHR (human) (UniProt P16473)
[2] = biological target: human TSHR with Asp276 mutated to Alanine, expressed in CHO cells (human) (UniProt P16473)
[3] = biological target: human TSHR Asp203Ala, expressed in CHO cells (human) (UniProt P16473)
[4] = biological target: TSHR with Asp160 mutated to Lysine (human) (UniProt P16473)

5C9 IgG (antibody), sequence (VH): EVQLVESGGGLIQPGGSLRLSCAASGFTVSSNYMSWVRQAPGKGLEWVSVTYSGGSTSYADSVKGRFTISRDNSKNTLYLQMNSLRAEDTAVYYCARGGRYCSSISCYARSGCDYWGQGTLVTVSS
5C9 IgG (antibody), sequence (VL): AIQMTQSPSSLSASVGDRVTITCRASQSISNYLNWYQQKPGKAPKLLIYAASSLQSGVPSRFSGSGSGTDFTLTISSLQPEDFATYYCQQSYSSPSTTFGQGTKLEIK

Substance 5C9 IgG (antibody) has a cyclic AMP; 100 µg/mL 5C9 IgG only (fmol/cell well) [1] of 253, a cyclic AMP; 5C9 0.01 µg/mL + TSH (fmol/cell well) [1] of 7340 and a cyclic AMP; 5C9 0.1 µg/mL + TSH (fmol/cell well) [1] of 4640. For the same substance, the cyclic AMP; 5C9 1.0 µg/mL + TSH (fmol/cell well) [1] was 918, the cyclic AMP; 5C9 10 µg/mL + TSH (fmol/cell well) [1] was 351 and the cyclic AMP; 5C9 100 µg/mL + TSH (fmol/cell well) [1] was 528. It also gave a cyclic AMP; 5C9 100 µg/mL only (fmol/cell well) [1] of 47, a cyclic AMP; T21 + 0.001 µg/mL 5C9 IgG (fmol/cell well) [1] of 11300 and a cyclic AMP; T21 + 0.01 µg/mL 5C9 IgG (fmol/cell well) [1] of 10400. It also gave a cyclic AMP; T21 + 0.1 µg/mL 5C9 IgG (fmol/cell well) [1] of 7480, a cyclic AMP; T21 + 1 µg/mL 5C9 IgG (fmol/cell well) [1] of 418 and a cyclic AMP; T21 + 10 µg/mL 5C9 IgG (fmol/cell well) [1] of 303. It also gave a cyclic AMP; T21 + 100 µg/mL 5C9 IgG (fmol/cell well) [1] of 210, a Cyclic AMP produced; 5C9 0.01 µg/mL + pTSH 3 ng/mL; Experiment 1 (fmol/cell well) [2] of 26200 and a Cyclic AMP produced; 5C9 0.01 µg/mL + pTSH 3 ng/mL; Experiment 2 (fmol/cell well) [2] of 21200. The Cyclic AMP produced; 5C9 0.1 µg/mL + pTSH 3 ng/mL; Experiment 1 (fmol/cell well) [2] was 16900, the Cyclic AMP produced; 5C9 0.1 µg/mL + pTSH 3 ng/mL; Experiment 2 (fmol/cell well) [2] was 7320 and the Cyclic AMP produced; 5C9 1.0 µg/mL + pTSH 3 ng/mL; Experiment 1 (fmol/cell well) [2] was 4790. The Cyclic AMP produced; 5C9 1.0 µg/mL + pTSH 3 ng/mL; Experiment 2 (fmol/cell well) [2] was 1510, the Cyclic AMP produced; 5C9 10 µg/mL + pTSH 3 ng/mL; Experiment 1 (fmol/cell well) [2] was 1380 and the Cyclic AMP produced; 5C9 10 µg/mL + pTSH 3 ng/mL; Experiment 2 (fmol/cell well) [2] was 1300. It also gave a Cyclic AMP produced; 5C9 100 µg/mL + pTSH 3 ng/mL; Experiment 1 (fmol/cell well) [2] of 565, a Cyclic AMP produced; 5C9 100 µg/mL + pTSH 3 ng/mL; Experiment 2 (fmol/cell well) [2] of 288 and a Cyclic AMP produced; 5C9 100 µg/mL only (no TSH); Experiment 1 (fmol/cell well) [2] of 602. For the same substance, the Cyclic AMP produced; 5C9 100 µg/mL only (no TSH); Experiment 2 (fmol/cell well) [2] was 314, the Mutated/wild type (%) of cyclic AMP; 5C9 0.01 µg/mL + pTSH 3 ng/mL; Experiment 1 [2] was 152% and the Mutated/wild type (%) of cyclic AMP; 5C9 0.01 µg/mL + pTSH 3 ng/mL; Experiment 2 [2] was 151%. For the same substance, the Mutated/wild type (%) of cyclic AMP; 5C9 0.1 µg/mL + pTSH 3 ng/mL; Experiment 1 [2] was 301%, the Mutated/wild type (%) of cyclic AMP; 5C9 0.1 µg/mL + pTSH 3 ng/mL; Experiment 2 [2] was 164% and the Mutated/wild type (%) of cyclic AMP; 5C9 1.0 µg/mL + pTSH 3 ng/mL; Experiment 1 [2] was 631%. It also gave a Mutated/wild type (%) of cyclic AMP; 5C9 1.0 µg/mL + pTSH 3 ng/mL; Experiment 2 [2] of 230%, a Mutated/wild type (%) of cyclic AMP; 5C9 10 µg/mL + pTSH 3 ng/mL; Experiment 1 [2] of 378% and a Mutated/wild type (%) of cyclic AMP; 5C9 10 µg/mL + pTSH 3 ng/mL; Experiment 2 [2] of 240%. The Mutated/wild type (%) of cyclic AMP; 5C9 100 µg/mL + pTSH 3 ng/mL; Experiment 1 [2] was 164%, the Mutated/wild type (%) of cyclic AMP; 5C9 100 µg/mL + pTSH 3 ng/mL; Experiment 2 [2] was 101% and the Mutated/wild type (%) of cyclic AMP; 5C9 100 µg/mL only (no TSH); Experiment 1 [2] was 201%. It also gave a Mutated/wild type (%) of cyclic AMP; 5C9 100 µg/mL only (no TSH); Experiment 2 [2] of 151%, a % inhibition of TSH stimulated cyclic AMP level; pTSH 3 ng/mL + 1 µg/mL 5C9 [3] of 4% and a cyclic AMP concentration; pTSH 3 ng/mL + 1 µg/mL 5C9 (mean of duplicate samples) (fmol/cell well) [3] of 9400. It also gave a Mutated/wild type (%); 5C9 0.01 µg/mL + M22 [4] of 91%, a Mutated/wild type (%); 5C9 0.1 µg/mL + M22 [4] of 82% and a Mutated/wild type (%); 5C9 1.0 µg/mL + M22 [4] of 117%. For the same substance, the Mutated/wild type (%); 5C9 10 µg/mL + M22 [4] was 309%, the Mutated/wild type (%); 5C9 100 µg/mL + M22 [4] was 218% and the Mutated/wild type (%); 5C9 100 µg/mL only [4] was 107%. It also gave a cyclic AMP; 5C9 0.01 µg/mL + M22 (fmol/cell well) [4] of 15200, a cyclic AMP; 5C9 0.1 µg/mL + M22 (fmol/cell well) [4] of 7700 and a cyclic AMP; 5C9 1.0 µg/mL + M22 (fmol/cell well) [4] of 963. The cyclic AMP; 5C9 10 µg/mL + M22 (fmol/cell well) [4] was 642, the cyclic AMP; 5C9 100 µg/mL + M22 (fmol/cell well) [4] was 657 and the cyclic AMP; 5C9 100 µg/mL only (fmol/cell well) [4] was 458.
